A short description of this series: label from the status in PepcDB records.
On to “MADFQVVVGDDDGTAYSFEVDGQDANRFIGRAIGETVDGDAVGLPGYELEITGGSDQSGRPMHGDINGAETAAILSEGGVGFNPTVDGERKRVTVRGAEVSEDTRQINASIVSRGEQSIDDLLGGEDDE”, for which the protein production entry was “failed”. As for “MADGIYGSFENLKKHAGAMTLETYMRFNAKLSEAKDEMGAKEYEEFTKELKKLTNAKLAYGDSNGNIDYDGLSPAKREEMKKVSMGLQPYFDKLNGHKSSKEVLTQEEFDRYMEALMTHEIVRVKTKSTGAIKIEEVPEAYKERFIKAEQFMEYVDEKVR”, the entry is “not failed”; as for “MADIINNIVGGRYYILELIGRGGSAIVYKARDIHNGGIYALKKYITSDPANRKRLLEGMERELEVLKNCTHPVLPKIFDLIKIEDAFFLVMEYIDGIDLKKYVDEYGTLSTKMLIKVMEQVCSGFYYLHSLSPAIVYRDLKPANIILCKDGRIKLIDFGIAKRYRTDIDVDKLALGSKGFAAPEQFGDSKGKGLYNTDIRADIYGIGTTMYYLKTAKTYNSVPGSKSLYSFKDYFKTSHKLRKIIKKCTKNNPDLRYQSCIEILCSIKTLHIIGK”, “failed”. In the case of “MADIQGEDLESLYGYAKQLFDGGEIAAARNVYQLLSTLDHWNFDYLLALGLCHQRLGAHNEAVVCFGRAGLIKVDDPRAAFYAGISYRLDGNAEYASKAFKAAINWCGEQIDYQAIKASAVDMLALQQEEVPLEHHHHHH” it was “not failed”; in that of “MADLSFIEDTVAFPEKEEDEEEEEEGVEWGYEEGVEWGLVFPDANGEYQSPINLNSREARYDPSLLDVRLSPNYVVCRDCEVTNDGHTIQVILKSKSVLSGGPLPQGHEFELYEVRFHWGRENQRGSEHTVNFKAFPMELHLIHWNSTLFGSIDEAVGKPHGIAIIALFVQIGKEHVGLKAVTEILQDIQYKGKSKTIPCFNPNTLLPDPLLRDYWVYEGSLTIPPCSEGVTWILFRYPLTISQLQIEEFRRLRTHVKGAELVEGCDGILGDNFRPTQPLSDRVIRAAFQLEHHHHHH”, “not failed”; in that of “MADLYTVVSSIILLFIVLDPVGVSPYVASIVARRPEGERERIVRTALASAGAILVAFTLIGVAVLDILGVSMDEFKVAAGLLLLIYATADLFEIKIGYSEPSGDEVAIFPLATPLLAGPGSIATVMYIMGSSGIAVALIAILVNLVLAYPILHASLKLVRLLGRHGSLLVAKFTAFLMVGFAVSIIFDGLRGIVPGVFS”, “failed”. As for “MADMTKQAFMRLSNPKFIMLFLILWVSLLLSSNHTLSQLADYIFFTFLGTLGAIFANSTGAGGGVVFIPMFTQLNFTEQQSIATSFAIQCFGMTAGAVTWWHHYRTEKTDLRLWQGFKRIICVTTIASIIGLNAVFFYQVNSPATLHTSFSWFSLLLGFFIVLTIYLLQPHRERSQLYYVDYIFLILIGLFGGAVTAWLSVGVGELLVIYLLLRHFDISMAVAAAVIVSAISVWTAIAQVNSDVYWQVVLFAGPGAVLGGIFAKTLVTHLSAIKLKLFFACWLLLSGVVGLI”, the entry is “failed”; as for “MADQAPRPAREFVVEADGGSRGNPGPAGYGAVVLDPVTGEALVEAAEYLGVVTNNVAEYRGLLAGLRAAAELDPDATVHVRMDSKLVVEQMSGRWKIKHPDMKPLAAEAARVFPPGRVTYEWIPRASNKHADRLANEAMDAGARGEAWSPSDSTAELDAAAADRAAPAGRTAGSRRTGAASAVAPAGTEGGDGGEPAPDGGGAAAGEPLARAGRDRVDAASLGAGTRAATSTGASATGTSGTGASATGTSGTGASATGAPGLGVAAETSGEADVRAAKVVASPGWGPPDMGAPATFVLLRHGETPLTPQKRFSGSGGSDPSLSPVGREQAERVAASLARRGTIEAVVASPLARTRETAGIVAARLGLEVAIEEGLRETDFGAWEGLTFGEVRERHPADLDAWLASPDAEPTGGGESFAATGTRIAATRDRLVAAYAGRTVLLVSHVTPIKTFVRLALGAPPESLFRMELSAASLSAVAYYADGGASVRLFNETSHLR”, “failed”. Consider “MADQSFAVLGLGKFGMALTVALLKAEQDVLVIDSNEEVINDVAHLVTHAVIADATDEDELRDLDIGSFDHVFVTMGENVEGSIITTMLAKKLGAPDVTTRANNHNHRLVLEKIGADHVIEPEQDMARQLIFRQLHPNVVNYFNLSKNISLIEVSVENSRFFNQSLGDLDFRKNYDVSVIGIVHDGKLNQVPLATDVIAPHDQITLIGSNKAVQRLDDILREEK”, for which the protein production result is “failed”. In the case of “MADRLIVRGAREHNLKNVSLDLPRDSLIVFTGLSGSGKSSLAFDTIFAEGQRRYVESLSSYARQFLGQMDKPDVDFIEGLSPAVSIDQKSTSRNPRSTVGTITEVYDYLRLLFARIGKPHCPECGRPISRQSPQAIVDKVLELPEGSRFQVLSPLVRERKGEFVDLFADLQTKGYSRARVDGETVQLSNPPTLKKQEKHTIEVVVDRLTVKDSAKRRLTDSVETALGLSGGMVVLDFVDLPEDDPERERMYSEHLYCPYDDLSFEELEPRSFSFNSPFGACPDCSGIGTRMEVDAELIVPDEDKSLDEGAIHPWSHGHTKDYFGRLIGALADALGFRTDIPFAGLPLRARKALLYGHKTQVEVRYRNRYGRERRYTTAFEGAIPFVKRRHSEAESDASRERFEGYMREVPCPTCQGTRLKPLVLAVTVMGKSIAEVSAMSISDCADFLGELTLNARDKKIAERVLKEVNERLRFLVDVGLDYLSLNRAAGTLSGGEAQRIRLATQIGSGLVGVLYVLDEPSIGLHQRDNHRLIETLVRLRDMGNTLIVVEHDEDTIKVADWIVDIGPGAGEHGGKVVHSGSVKELLDNAESQTGLYLSGRKAIPLPDIRRPQDPSRRLTVHGARENNLQDIDVSFPLGVFTAVTGVSGSGKSTLVNDILYTHLARELNGARNVPGRHTRVDGDDLVDKVVHVDQSPIGRTPRSNPATYTGVFDHIRKLFAETTEAKVRGYLPGRFSFNVKGGRCENCAGDGTIKIEMNFLPDVYVPCEVCHGARYNRETLEVHYKGKSIADVLNMPIEEATDFFEAVPAISRHMKTLKDVGLGYVRLGQSATTLSGGEAQRVKLASELQRRSTGRTVYVLDEPTTGLHFEDISKLLTVLGGLVDKGNTVIVIEHNLDVIKTADWVVDMGPEGGAGGGLVVAEGTPEQVAGVPASHTGKFLRDVLGADRVSDAAPVTRPRKAAKTVAAKAAAKKTATKTVTGTAAKKATATRTAKTAVKKAAKPAAKKTTRTSKA” it was “failed”. Turning to “MADSENMYILSEDEDVCPTCLEEYTSENPKIVTKCSHHFHLSCIYEWMERSENCPVCGKVMEFNETP”, the protein production result was “failed”. In the case of “MADSRPRLVTGSPEGYPGHVDGRLRDARLNNPKGLTVDDRGNIYVADTVNNAIRKISEAGVTTIAGGKMVRGGGHVDGPSEDAKFSNDFDVVYLGSSCSLLVIDRGNQAIREIQLHFDDCADQYGSGFPLGIAVLVAAVFFGYMLALLQRRLSSIVSYHTDQEVFEAVPDQDPIKPVRPPLILTGDEQEKQEESFLGTLQIFISNAWVFSVELFSGMFPGLRKKQTVGLNFNHQETKHSAFSTTSWPIQESFVIHNKDEPPPVESRNATPGKIYPFMSKDATEKMQQLRQSRALYRSLDAEFLQEQQQEKHQQYHHRHHSTIPYTLYEQSSEKTNEIVFGPGQEQDQMNTHQNIHHRAHQFVSYPYGYYS” it was “failed”; in that of “MADVATKHPMEDEVKKTEASSLVGKLETDVEIKASADKFHHMFAGKPHHVSKASPGNIQGCDLHEGDWGTVGSIVFWNYVHDGEAKVAKERIEAVEPDKNLITFRVIEGDLMKEYKSFLLTIQVTPKPGGPGSIVHWHLEYEKISEEVAHPETLLQFCVEVSKEIDEHLLAEEEEVKTPETPSLVGKLETDVEIKASAEKFHHMFAGKPHHVSKASPGNIQGCDLHEGDWGQVGSIVFWNYVHDREAKVAKERIEAVEPNKNLITFRVIDGDLMKEYKSFLLTIQVTPKLGGPGSIVHWHLEYEKISEEVAHPETLLQFCVEVSKEIDEHLLAEE”, “failed”; in that of “MADVENQQDSSFPVKRKSDLFCQDQDNVTNKAQKLNPSLNSADSESKDGETNGSGQIENLNSSTEETIGAESSVLSEKAAEEVESGVIGDVGAEEEQEDEEDEEEDDEEEEEEEEVVDRKGKGISREDKGKGKMIEVEESDDEDDSDDDEDDEGFDEDDESDFSDDPLAEVDLDNILPSRTRRRSSQPGVFIPNEFSNRHVNDEDDESSDSDA”, “failed”. In the case of “MAEASSLVGKLETEVEIKASAKKFHHMFTERPHHVSKATPDKIHGYGKLTVGKNKIEAVDPEKNLITFKVLEGDLMNEYKSFAFTLQVTPKQGESGSIAHWHLEYEKISEEVAHPETLLQFCVEISKEIDEHLLAEE” it was “failed”; in that of “MAEDFSVVVLASDLGIDARPFLTRSDDVDEQENWHDCPQYLGDEDFSDLDLLQFFTLQGLDRSGNRIFRIVGKYFPARVVSAERLKKYISQKISNQCPEGPLCLVYMHSTVQKDDNSPGITILRWIYEDLPSDIKDRLQLVYFIHPGLRSRLVIATLGRLLLSGGLYWKIKYVSRLQYLWEDIKKGEVEIPDFVKNHDNVLEHRPLTDYGIEPDPFQLSEVQSSSFSLNRYENRWVS”, “failed”. Regarding “MAEEQEIVDSLSAEVNPDQKVDMEVETATPKAETGDEKREREETEEEENGGESKKQKVGEEEKSGPVKLGPKEFVTSVAMFDYFVKFLHFWPTDLDVNKYEHMVLLDLIKKGHSEPEKKIGGGIKTFQVRTHPMWKSRCFFLVREDDTADDFSFRKCVDQILPLPENMKTPGANGNGHGGGRGGGGGRRGGRGGGRGGRFRR”, the protein production result is given as “failed”.

In the case of “MAEERHHTEHIPQWKKDEIENIKELIQSHKVFGMVRIEGILATKIQKIRRDLKDVAVLKVSRNTLTERALNQLGESIPEMTRYLDNQTALIFTNESPFKLYKLLEQTKTPSPIKAGAIAPEDIIVQKGPTSFPPGPILGELQSAGIPASIDAGKVAVKETKVVCKAGEAVPQKLATMLSKLEIYPLIVGLDLRAAYDDGTIYEPELLAVDESKYFSDIIRAAQNAFNLSVNTAYPTGATIGTLLAKAYAESKSLGVNAVILEPGVMDSLLAKAHVQMTSVASEAAEKDANAVDDDLREVLGAAASAAAAATVAAPAAEEEKKEEEPEEEEEDHAEEDGMAGLGALFGLEHHHHHH”, the protein production entry is given as “not failed”. As for “MAEERRIDWSSLWKKEDWWAFWLGMLLFVLCLATAYGADIMGWVVKSSTWVDVSKAMGPTSKNFAYLGPIGSFVVSWLVLLILTTIGAVAMGWKGGKFAAAFTVIFILTWICWVIGHNAYIAATDPAKAGVPWSLRMTGEAGYIFALILGLIIGNFFKGFANWLKEAAKPEWFIKTAIVLLGAVVGIKAPTIPPEILYNYLFRGLCAIVEAYLIYWALVYWVARRYFGFSREWAAPLASGISICGVSAAIATGGAIRARPVVPVMVASLVIVFAVVELLFLPFLAATFLQHQPLVAGAWMGLAVKTDGAATASVKWLKL”, the entry is “failed”; as for “MAEGGGCRERPDAETQKSELGPLMRTTLQRGAQWYLIDSRWFKQWKKYVGFDSWDMYNVGEHNLFPGPIDNSGLFSDPESQTLKEHLIDELDYVLVPTEAWNKLLNWYGCVEGQQPIVRKVVEHGLFVKHCKVEVYLLELKLCENSDPTNVLSCHFSKADTIATIEKEMRKLFNIPAERETRLWNKYMSNTYEQLSKLDNTVQDAGLYQGQVLVIEPQNEDGTWPRQTLQSKSSTAPSRNFTT”, “failed”; as for “MAEITEKVLKKPNAIPDVFERKGGSAPTATHYCAGCGHGIIHKLMAEAIDELEIQDRCVLISPVGCAVFAYYYFDCGNIQVAHGRAPAVGTGVSRAEDNAIVMSYQGDGDLASIGLNETIQAANRGEKMAVFFVNNTVYGMTGGQMAPTTLIGEKTVTCQTGRDPRFAGYPIHMCELLSSLKAPVFIERVSVSDIAHIRKAKRAIKKALEIQRDGKGYAFVEILSPCPTNLRQDANAAQKFINEEMEKEFPLQNFRDRSAEVETLNRGESDFSKECLDNIFEVNSKGAEDPSEDLSFEEKLVKIAGFGGQGVLSMGLTLAEAACRDQKYVSWYPSYGPEQRGGTSNCSVIISGHEIGSPVVYSPGVLIALNKPSLENFAKDVKTGGTIIYDENIGDFEIPNGVTAIKVPASKIATEMGVSRAANTVMLGVLSALGYTGLSESVFVGAIEQTFSKKPKLIPINVEILNAGISWAKENLAL”, “failed”.

The record behind these values is a protein production outcome set (Wang et al. 2014).
